# Read-outs that look alike come from different tables or passages of the source.
# Tests used:
# Test in all cases: EMSA
# IMP1 [1] = target: T1, IMP1 (human, UniProt Q9NZI8 1-577)
# YBX1 [2] = target: T2, YBX1 (human, UniProt P67809 1-324)
# IMP1 [3] = target: T1, IMP1; remark: listed apart in the source
# YBX1 [4] = target: T2, YBX1; remark: listed apart in the source
# IMP1_KH1-4mut = IMP1_KH1-4mut (human, UniProt Q9NZI8 1-577, K213E;E214L;K294E;E295L;K423E;K424L;K505E;G506L)
# IMP1 [5] = target: T1, IMP1; remark: listed apart in the source
# YBX1 [6] = target: T2, YBX1; remark: listed apart in the source
# YBX1 [7] = target: T2, YBX1; remark: listed apart in the source
# IMP1 [8] = target: T1, IMP1; remark: listed apart in the source
# T2 sequence (P67809 whole entry): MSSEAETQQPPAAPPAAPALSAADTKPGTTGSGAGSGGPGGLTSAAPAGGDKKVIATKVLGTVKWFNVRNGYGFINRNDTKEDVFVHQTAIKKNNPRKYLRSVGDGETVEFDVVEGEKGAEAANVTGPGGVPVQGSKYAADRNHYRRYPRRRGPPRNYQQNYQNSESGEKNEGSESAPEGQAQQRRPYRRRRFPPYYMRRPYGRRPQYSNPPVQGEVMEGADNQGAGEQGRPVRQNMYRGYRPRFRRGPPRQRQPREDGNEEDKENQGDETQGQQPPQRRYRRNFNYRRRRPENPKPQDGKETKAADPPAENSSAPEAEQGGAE
# T1 sequence (Q9NZI8 whole entry): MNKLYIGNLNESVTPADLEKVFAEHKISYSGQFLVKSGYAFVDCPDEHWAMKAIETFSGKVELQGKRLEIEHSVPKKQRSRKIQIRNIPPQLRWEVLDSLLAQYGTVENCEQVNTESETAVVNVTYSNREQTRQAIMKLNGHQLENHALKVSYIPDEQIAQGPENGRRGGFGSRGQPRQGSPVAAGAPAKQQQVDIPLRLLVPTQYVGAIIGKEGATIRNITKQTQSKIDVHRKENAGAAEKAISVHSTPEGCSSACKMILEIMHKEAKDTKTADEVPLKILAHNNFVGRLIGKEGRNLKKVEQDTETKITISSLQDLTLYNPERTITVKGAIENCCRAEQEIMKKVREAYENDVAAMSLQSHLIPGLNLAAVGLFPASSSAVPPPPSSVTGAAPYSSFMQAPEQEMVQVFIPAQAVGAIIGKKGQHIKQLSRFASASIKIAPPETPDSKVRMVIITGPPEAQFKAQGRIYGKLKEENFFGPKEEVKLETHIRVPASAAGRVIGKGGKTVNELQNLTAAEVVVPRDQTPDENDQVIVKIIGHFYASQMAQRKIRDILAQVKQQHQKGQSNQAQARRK
# IMP1_KH1-4mut, sequence (Q9NZI8 whole entry K213E/E214L/K294E/E295L/K423E/K424L/K505E/G506L): as the sequence (Q9NZI8 whole entry) above, with K213E, E214L, K294E, E295L, K423E, K424L, K505E, G506L counted along it
binder,measurement,setting,value
C-MYC 3'UTR (ssRNA) RNA: GGAAAAGUAAGGAAAACGAUUCCUUCUAACAGAAAUGUCCUGAGCAAUCACCUAUGAACUUGUUUCAAAUGCAUGAUCAAAUGCAACCUCACAACCUUGGCUGAGUCUUGAGACUGAAAGAUUUAGCCAUAAUGUAAACUGCCUCAAAUUGGACUUUGGGCAUAAAAGAACUUUUUUAUGCUUACCAUCUUUUUUUUUUCUUUAACAGAUUUGUAUUUAAGAAUUG,binding result,IMP1 [1],binds
same,binding result,YBX1 [2],binds
C-MYC CRD (ssRNA) RNA: GGACCAGAUCCCGGAGUUGGAAAACAAUGAAAAGGCCCCCAAGGUAGUUAUCCUUAAAAAAGCCACAGCAUACAUCCUGUCCGUCCAAGCAGAGGAGCAAAAGCUCAUUUCUGAAGAGGACUUGUUGCGGAAACGACGAGAACAGUUGAAACACAAACUUGAACAGCUACGGAACUCUUGUGCG,binding result,IMP1 [3],binds
same,binding result,YBX1 [4],binds
same,binding signal,IMP1_KH1-4mut,~10 fold reduction vs wild-type IMP1
ACTB exon 5 (ssRNA) RNA: not shown,binding result,IMP1 [5],no binding
same,binding result,YBX1 [6],binds
ACTB 3'UTR (ssRNA) RNA: GGCGGACUAUGACUUAGUUGCGUUACACCCUUUCUUGACAAAACCUAACUUGCGCAGAAAACAAGAUGAGAUUGGCAUGGCUUUAUUUGUUUUUUUUGUUUUGUUUUGGUUUUUUUUUUUUUUUUGGCUUGACUCAGGAUUUAAAAACUGGAACGGUGAAGGUGACAGCAGUCGGUUGGAGCGAGCAUCCCCCAAAGUUCACAAUGUGGCCGAGGACUUUGAUUGCACAUUGUU,binding result,YBX1 [7],binds
same,binding result,IMP1 [8],binds
